The values that follow come from patent US10487118B2, “Factor involved in latent infection with herpes virus, and use thereof” (Virus Ikagaku Kenkyusho Inc., priority 2007, dated 2019).

Assay [1] relates to astrocyte-like glial cell line (U373). As to the kind of experiment: Intracellular calcium concentration measured with Fura2 after thapsigargin stimulation. In kind it is cell-based. The note with it: SITH-1 transferred via retrovirus vector into U373, thapsigargin (TG) stimulation, vs vector only. Here is the method: In another experiment, two samples were prepared; one sample was prepared by transferring SITH-1 into an astrocyte-like glial cell line (U373) via a retrovirus vector, and the other sample was prepared by introducing only the vector into U373. Each sample was stimulated with thapsigargin (TG), and an intracellular calcium concentration was measured using Fura2.
In general terms: Calcium assays in cells follow changes in intracellular calcium, usually with a dye or a luminescent sensor.

The test system of assay [2] is mice. As to the kind of experiment: Startle response (prepulse inhibition). The note with it: SITH-1 transferred using adenovirus vector. In kind it is in vivo. Here is the method:
(§1) SITH-1 having a glial fibrillary acidic protein (GFAP) promoter linked upstream of its open reading frame was injected into the brains of newborn mice using an adenovirus vector or a retrovirus vector. GFAP is a protein expressed specifically in glial cells such as astrocytes.
The present inventors also measured a prepulse inhibition in order to check for any abnormality in a startle response, which abnormality is to be found in patients with manic-depressive illness and schizophrenia. Specifically, mice into which SITH-1 was transferred using the adenovirus vector were evaluated for a startle response by measuring the prepulse inhibition.

In assay [3] the test system is mice. As to the kind of experiment: Tail suspension test. In kind it is in vivo. The note with it: SITH-1 transferred using adenovirus vector, GFAP promoter, injected into brains of newborn mice. Here is the method:
as §1
(§2) A tail suspension test and a forced swimming test were conducted to evaluate mental disorders; these tests are commonly used to observe patients with depression or manic-depressive illness. Specifically, mice into which SITH-1 was transferred using an adenovirus vector were subjected to a tail suspension test. […] Subsequently, mice into which SITH-1 was transferred using a retrovirus vector were subjected to a forced swimming test.

The test system of assay [4] is mice. As to the kind of experiment: Forced swimming test. In kind it is in vivo. How it is done:
as §1, §2

Assay [5] concerns the target T1, calcium-signal modulating cyclophilin ligand (CAML) (Homo sapiens, UniProt P49069).
T1 construct: made in house; host or cells: yeast (two-hybrid prey from a human fetal brain cDNA library); E. coli (pull-down); 293T cells (transfected, co-precipitation)
T1 sequence (P49069 1-296): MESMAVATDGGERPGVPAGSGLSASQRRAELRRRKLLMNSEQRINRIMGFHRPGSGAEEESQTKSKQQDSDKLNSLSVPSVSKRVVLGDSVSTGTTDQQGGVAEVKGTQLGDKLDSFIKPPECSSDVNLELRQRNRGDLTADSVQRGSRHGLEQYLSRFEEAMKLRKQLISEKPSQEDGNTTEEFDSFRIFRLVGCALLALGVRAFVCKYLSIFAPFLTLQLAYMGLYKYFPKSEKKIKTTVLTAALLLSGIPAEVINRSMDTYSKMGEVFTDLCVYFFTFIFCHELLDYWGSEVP
As to the kind of experiment: Binding of SITH-1 to host protein (yeast two-hybrid, in vitro pull-down, co-precipitation). The settings on record: yeast two-hybrid with human fetal brain cDNA library; GST pull-down; co-precipitation in 293T cells. How it is done:
To study the function of the protein SITH-1, a host protein to which the protein SITH-1 would bind within cells was identified. This was performed by screening of a human fetal brain cDNA library by means of yeast two-hybrid assay with the protein SITH-1 used as a bait.

The test system of assay [6] is astrocyte-like glial cell line (U373). As to the kind of experiment: Fluorescent antibody staining of CAML in SITH-1-expressing U373 cells. The class given is cell-based. The note with it: SITH-1 expressed in U373 vs untreated U373 cells. From the text:
CAML is a protein that has been reported to show strong expression in lymphocytes and in a brain, and it is known that CAML has ability to increase an intracellular calcium concentration. Thus, in order to see whether the protein SITH-1 would be mediated by CAML to increase the intracellular calcium concentration, both an astrocyte-like glial cell line (U373) in which SITH-1 had been expressed and untreated U373 cells were stained by the fluorescent antibody technique using anti-SITH-1 antibodies and anti-CAML antibodies.

Assay [7] deals with mice. As to the kind of experiment: Motor activity in terms of wheel running activity. In kind it is in vivo. The note with it: vs EGFP control mice. How it is done:
Next, an open reading frame of SITH-1 was linked downstream of a GFAP promoter, and expressed in glial cells of mice using an adenovirus vector; three weeks later, the mice were measured for their motor activity in terms of wheel running activity.
Subsequently, an open reading frame of SITH-1 was linked downstream of a GFAP promoter, and expressed in glial cells of mice using a lentivirus vector; eight weeks later, the mice were measured for their motor activity in terms wheel running activity.

B1: SITH-1: protein expressed specifically during latent infection with HHV-6; approximately 17.5 kDa, 159 amino acids, SEQ ID NO: 1 (protein)
chain: MGYEEKVSATGKTRLKILACLIVLILAAAITMLTLEIISNQKRTTTDLEAVTVALKHVSTSLASCTESTTSVHTDSVTSQPTKNKESRKKIEGKSPSWVQALTTASGIILLFCIMMIFITCSWTTEKDTEKSEVQSYASSVETLDSLNEAIIPKTEMNV
modifications: Human herpesvirus 6
In the case of B1, the intracellular calcium concentration result in assay [1] was “considerably higher”. Moreover, the prepulse inhibition entry with mice [2] is “markedly lower prepulse inhibition”. For the same molecule, the immobile time entry is listed as “markedly shorter immobile time” with mice [3]; “longer immobile time” with mice [4] (retrovirus vector at HIGH titer, vs EGFP control mice); “shorter immobile time” in the assay with mice [4] (retrovirus vector at LOW titer). The “binding to CAML” value in assay [5] is “bind strongly”. In assay [6], the “amount of CAML” value is reported as “more CAML was found than in the untreated U373 cells”. In addition, the “motor activity (wheel running activity)” value in the assay with mice [7] (adenovirus vector, three weeks later) is reported as “motor activity enhanced”; in the assay with mice [7] (lentivirus vector, eight weeks later), “motor activity suppressed”.
